Test results published in IntAct's records for PubMed 35512704.

B1: Mothers against decapentaplegic homolog 4 (Homo sapiens), Q13485 (parent)
chain: MDNMSITNTPTSNDACLSIVHSLMCHRQGGESETFAKRAIESLVKKLKEKKDELDSLITAITTNGAHPSKCVTIQRTLDGRLQVAGRKGFPHVIYARLWRWPDLHKNELKHVKYCQYAFDLKCDSVCVNPYHYERVVSPGIDLSGLTLQSNAPSSMMVKDEYVHDFEGQPSLSTEGHSIQTIQHPPSNRASTETYSTPALLAPSESNATSTANFPNIPVASTSQPASILGGSHSEGLLQIASGPQPGQQQNGFTGQPATYHHNSTTTWTGSRTAPYTPNLPHHQNGHLQHHPPMPPHPGHYWPVHNELAFQPPISNHPAPEYWCSIAYFEMDVQVGETFKVPSSCPIVTVDGYVDPSGGDRFCLGQLSNVHRTEAIERARLHIGKGVQLECKGEGDVWVRCLSDHAVFVQSYYLDREAGRAPGDAVHKIYPSAYIKVFDLRQCHRQMQQQAATAQAAAAAQAAAVAGNIPGPGSVGGIAPAISLSAAAGIGVDDLRRLCILRMSFVKGWGPDYPRQSIKETPCWIEIHLHRALQLLDEVLHTMPIADPQPLD
partner: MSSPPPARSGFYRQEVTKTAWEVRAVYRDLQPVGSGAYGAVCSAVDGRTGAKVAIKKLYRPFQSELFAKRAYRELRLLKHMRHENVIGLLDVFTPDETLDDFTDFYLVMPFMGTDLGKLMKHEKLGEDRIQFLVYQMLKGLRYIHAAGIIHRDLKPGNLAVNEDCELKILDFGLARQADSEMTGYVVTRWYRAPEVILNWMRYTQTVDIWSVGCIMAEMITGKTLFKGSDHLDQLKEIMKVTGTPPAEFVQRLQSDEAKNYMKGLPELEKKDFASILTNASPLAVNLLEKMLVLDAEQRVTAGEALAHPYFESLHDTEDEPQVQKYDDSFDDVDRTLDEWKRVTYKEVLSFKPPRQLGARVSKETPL
B2: Mothers against decapentaplegic homolog 4 (Homo sapiens), Q13485 (parent)
chain: B1 chain
partner: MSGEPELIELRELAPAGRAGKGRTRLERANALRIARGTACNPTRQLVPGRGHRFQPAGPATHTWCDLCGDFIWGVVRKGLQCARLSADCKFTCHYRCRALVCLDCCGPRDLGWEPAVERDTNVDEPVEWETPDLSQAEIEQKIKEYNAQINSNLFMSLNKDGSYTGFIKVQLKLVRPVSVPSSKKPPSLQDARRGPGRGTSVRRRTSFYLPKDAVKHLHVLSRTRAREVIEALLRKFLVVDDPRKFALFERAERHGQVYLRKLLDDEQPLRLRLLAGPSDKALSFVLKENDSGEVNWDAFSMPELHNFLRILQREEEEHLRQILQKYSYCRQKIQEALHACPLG
B3: Mothers against decapentaplegic homolog 4 (Homo sapiens), Q13485 (parent)
chain: B1 chain
partner: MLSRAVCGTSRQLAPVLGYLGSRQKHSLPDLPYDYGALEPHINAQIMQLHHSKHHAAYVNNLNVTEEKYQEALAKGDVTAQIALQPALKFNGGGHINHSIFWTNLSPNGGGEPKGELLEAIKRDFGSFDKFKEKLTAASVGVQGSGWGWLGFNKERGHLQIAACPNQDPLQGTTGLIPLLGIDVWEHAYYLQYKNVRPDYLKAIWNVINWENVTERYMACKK
B4: Mothers against decapentaplegic homolog 4 (Homo sapiens), Q13485 (parent)
chain: B1 chain
partner: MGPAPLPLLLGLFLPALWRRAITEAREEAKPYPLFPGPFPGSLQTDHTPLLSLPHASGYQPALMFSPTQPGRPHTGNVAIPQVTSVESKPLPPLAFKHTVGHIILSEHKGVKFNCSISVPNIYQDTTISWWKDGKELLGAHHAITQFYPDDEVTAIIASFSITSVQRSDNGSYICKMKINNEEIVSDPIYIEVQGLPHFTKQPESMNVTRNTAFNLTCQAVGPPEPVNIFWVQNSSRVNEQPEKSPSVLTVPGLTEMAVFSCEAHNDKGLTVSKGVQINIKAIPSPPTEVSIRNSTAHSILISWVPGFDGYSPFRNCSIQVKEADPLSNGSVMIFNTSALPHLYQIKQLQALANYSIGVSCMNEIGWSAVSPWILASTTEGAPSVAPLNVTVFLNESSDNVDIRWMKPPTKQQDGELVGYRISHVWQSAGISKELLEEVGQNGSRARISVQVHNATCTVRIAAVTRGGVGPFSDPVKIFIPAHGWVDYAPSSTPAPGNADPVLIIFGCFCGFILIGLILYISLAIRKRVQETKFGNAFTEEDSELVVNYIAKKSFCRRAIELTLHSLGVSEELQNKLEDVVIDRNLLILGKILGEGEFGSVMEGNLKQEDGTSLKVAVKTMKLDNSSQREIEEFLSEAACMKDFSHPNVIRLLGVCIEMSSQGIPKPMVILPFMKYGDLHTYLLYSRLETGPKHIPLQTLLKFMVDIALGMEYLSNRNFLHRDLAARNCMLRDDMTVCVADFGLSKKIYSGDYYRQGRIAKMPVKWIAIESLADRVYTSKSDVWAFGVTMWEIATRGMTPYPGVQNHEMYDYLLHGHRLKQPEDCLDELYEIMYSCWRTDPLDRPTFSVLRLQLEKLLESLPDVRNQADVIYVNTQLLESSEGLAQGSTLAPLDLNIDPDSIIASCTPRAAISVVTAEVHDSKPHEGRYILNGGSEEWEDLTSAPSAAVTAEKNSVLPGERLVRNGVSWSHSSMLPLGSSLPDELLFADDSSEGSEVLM

Variants of: B1
Settings: with mk12_human MAPK12, P53778

Row | Variant | effect of a mutation on the interaction
1 | G386D | with no effect

Variants of: B2
Settings: with rasf1_human RASSF1, Q9NS23

Row | Variant | effect of a mutation on the interaction
2 | R361H | with no effect

Variants of: B2
Settings: with rasf1_human RASSF1, Q9NS23
Remark: another data set of the same source

Row | Variant | effect of a mutation on the interaction
3 | R361C | with no effect

Variants of: B2
Settings: with rasf1_human RASSF1, Q9NS23
Remark: another data set of the same source

Row | Variant | effect of a mutation on the interaction
4 | G386D | with no effect

Variants of: B2
Settings: with rasf1_human RASSF1, Q9NS23
Remark: another data set of the same source

Row | Variant | effect of a mutation on the interaction
5 | D351H | with no effect

Variants of: B3
Settings: with sodm_human SOD2, P04179

Row | Variant | effect of a mutation on the interaction
6 | R361C | with no effect

Variants of: B3
Settings: with sodm_human SOD2, P04179
Remark: another data set of the same source

Row | Variant | effect of a mutation on the interaction
7 | R361H | with no effect

Variants of: B3
Settings: with sodm_human SOD2, P04179
Remark: another data set of the same source

Row | Variant | effect of a mutation on the interaction
8 | D351H | with no effect

Variants of: B3
Settings: with sodm_human SOD2, P04179
Remark: another data set of the same source

Row | Variant | effect of a mutation on the interaction
9 | G386D | with no effect

Variants of: B4
Settings: with mertk_human MERTK

Row | Variant | effect of a mutation on the interaction
10 | D351H | with no effect

Variants of: B4
Settings: with mertk_human MERTK
Remark: another data set of the same source

Row | Variant | effect of a mutation on the interaction
11 | R361H | with no effect

Variants of: B4
Settings: with mertk_human MERTK
Remark: another data set of the same source

Row | Variant | effect of a mutation on the interaction
12 | R361C | with no effect
